Measured values: patent publication US7794711B2, “Agent for treating chondroma and chondrosarcoma” (Chugai Seiyaku Kabushiki Kaisha, priority 2002, dated 2010)
Each block holds one molecule with its values, some of them ahead of it.

How the values were obtained:
[1] = tested on: Human chondrosarcoma cell HTB-94; test: Viability of cells (Premix WST-1 Cell Proliferation Assay System); type: cell-based; conditions: 20 μM, 2 hours before the addition of anti-PTHrP MoAb (FIG. 2)
Method: Human chondrosarcoma cell HTB-94 (ATCC) was suspended in Dulbecco's Modified Eagle's Medium (DMEM) containing 10% FBS, L-glutamine, penicillin-streptomycin (all are available from GIBCO-BRL), and was cultured and proliferated at 37° C. under 5% CO2 wet condition.
That is, reduction ratio of tetrazolium salt (WST-1) by viable cells was determined from the increase in OD450, and it was considered as the index of the number of viable cells.

[2] = molecular target: T1, PTHrP (1-34) (Homo sapiens, UniProt P12272); test: ELISA measurement of antigen binding ability; design: coated with 100 μl of human PTHrP(1-34) (Peptide Research Institute); purchased Peptide Research Institute; conditions: expressed in COS-7 cells; H chain humanized version a
Method: The ELISA plate for antigen binding measurement was prepared as follows. Each well of a 96 well plate for ELISA was coated with 100 μl of human PTHrP(1-34) (Peptide Research Institute) adjusted to 1 μg/ml concentration by the coating buffer. […] After the plate was incubated at room temperature and washed with PBS-Tween20, 100 μl of alkaline phosphatase (TAGO) conjugated goat anti-man IgG antibody was added. After the plate was incubated at room temperature and washed with PBS-Tween20, 1 mg/ml of a substrate solution (Sigma104, p-nitrophenylphosphate, SIGMA) was added, and, next, 405 nm absorption was measured with a micro plate reader (Bio Rad).
The ELISA plate for antigen binding measurement was prepared as follows. Each well of a 96 well plate for ELISA was coated with 100 μl of human PTHrP(1-34) adjusted to 1 μg/ml concentration by the coating buffer. After blocking with 200 μl of the dilution buffer, the culture supernatant of the COS-7 cells in which hybrid antibody or humanized antibody was expressed or the purified hybrid antibody or the humanized antibody was stepwise diluted and added to each well. After the plate was incubated at room temperature and washed with PBS-Tween20, 100 μl of alkaline phosphatase (TAGO) conjugated goat anti-man IgG antibody was added. After the plate was incubated at room temperature and washed with PBS-Tween20, 1 mg/ml of a substrate solution (Sigma104, p-nitrophenylphosphate, SIGMA) was added, and 405 nm absorption was then measured on a micro plate reader (Bio Rad).

[3] = tested on: HTB-94 cells; test: Western blotting of HTB-94 cell lysates; type: cell-based, human
Method: In the experiment with regard to the following collagen type-X, the cells were treated by anti-PTHrP MoAb for further five days (for total seven days). All the cell lysates (50 μg as protein) of the above-mentioned cells were separated by SDS-PAGE using 12% gel and blotted on a nitrocellulose film (Bio-Rad Laboratories). The blocked film was incubated together with an anti-procaspase-3 antibody (Wako Pure Chemical) diluted to 1/100, an anti-PARP antibody, an anti-Bcl-2 antibody and an anti-Bax antibody (both from Santa Cruz Biotechnology), an anti-collagen type X antibody (Calbiochem-Novabiochem Corporation) and a peroxidase conjugated secondary antibody (Amersham) diluted to 1/1000.
Here, PARP (poly(ADP-ribose) polymerase) is an enzyme important for the survival in a cell, and caspase-3 causes cleavage of this PARP.
Detection was performed using ECL Western blotting detection system (Amersham). Each blot was further re-detected by ECL using anti-o-actin antibody (Santa Cruz Biotechnology) and the peroxidase conjugated secondary antibody.

[4] = tested on: HTB-94 cells; test: TUNEL staining; type: cell-based, human; conditions: two days
Method: TUNEL staining was performed using Apoptag Peroxidase Kit (Intergen Company). […] Subsequently, the cells were incubated with a TdT reaction mixture (TdT solution+[…] and dATP) at 37° C. for 60 minutes, and further incubated with peroxidase conjugated anti-dioxygenin antibody at room temperature for 30 minutes. The cells were stained with DAB and then counterstained with Mayer's hematoxylin and microscopically observed at 200-fold, 400-fold and 600-fold magnification.

[5] = tested on: HTB-94 cells; test: Immunocytochemistry using anti-collagen type X antibody; type: cell-based, human; conditions: particularly at high concentration, seven days
Method: Immunocytochemistry was performed by streptavidin-peroxidase method using histofine SAB-PO kit ([…]). […] Subsequently, the cells were transferred to 3% H2O2 methanol to block endogenous peroxidase activity, washed with PBS (pH 7.2), and then blocked with PBS containing normal 10% serum (secondary antibody) of the congeneric origin in order to make the background minimum and incubated with anti-collagen type X antibody (primary antibody) at room temperature for 2 hours. Afterwards the cells were washed with PBS, incubated with the secondary antibody at room temperature in a wet chamber for 20 minutes, and incubated with peroxidase conjugated streptavidin ([…]) for 20 minutes under the same conditions. Finally, coloring reaction was performed with 3,3-diaminobenzidine tetrahydrochloride (DAB) reagent (Dojindo). The cells were counterstained with hematoxylin and microscopically observed at 200-fold and 400-fold magnification.

[6] = tested on: HTB-94 cells; test: RT-PCR; type: cell-based, human; conditions: 100 μg/ml, two days, vs control
Method: PCR of cDNA was performed using Ready-to-Go PCR beads (Pharmacia) and primers for human Bcl-2, Bax, Ihh, ColX (α1) and β-actin amplification (12.5 pmol(s) each).
Amplification was performed using Perkin-Elmer/Cetus DNA Thermal Cycler (TAKARA SHUZO) on the conditions of 30 cycles each of 94° C., 0.5 min; 55° C., 0.5 min; 72° C., 0.5 min and last extension reaction at 72° C. for 7 minutes.
Electrophoresis of the obtained PCR product (10 μL) was carried out on a 4% agarose gel, and stained and observed with ethidium bromide.

[7] = molecular target: T1, PTHrP (1-34); test: Screening of hybridomas by solid phase RIA of culture supernatant; type: binding; design: purchased Peninsula; conditions: hybridoma culture supernatant
Method: Hybridomas #23-57-154 and #23-57-137-1 which produce monoclonal antibody to human PTHrP (1-34) were produced as follows (Sato, K. et al., J. Bone Miner. Res. 8, 849-860, 1993). The amino acid sequence of human PTHrP (1-34) is shown in the SEQ ID No. 75.
Screening of hybridomas was performed by measuring and selecting the existence of a PTHrP recognizing antibody by applying solid phase RIA method to the culture supernatant of the wells where growth was recognized in HAT culture medium. Hybridomas were collected from the wells where binding ability with an antibody was recognized, suspended to the culture medium prepared by adding OPI-supplement (Sigma) to the RPMI-1640 culture medium containing FCS 15%, and the hybridomas was simplified by the limiting dilution method.

[8] = tested on: HTB-94 cells; test: DNA fragmentation assay; type: cell-based, human; conditions: two days
Method: That is, the cells were dissolved in a dissolution buffer, DNA was isolated, extracted with an organic solvent and ethanol precipitation was carried out. The precipitated DNA was centrifuged (12,000 g, 10 min) and then washed with 80% ethanol, and dissolved in 30 μl of TE buffer. Each sample (10 μl) was subjected to electrophoresis on a 1.2% agarose gel, and stained with ethidium bromide.

[9] = 0, 10, 30, 50, 100, and 200 μg/ml, two days

Molecule: DEVD-CHO
- effect of caspase-3 inhibitor on the effect of anti-PTHrP MoAb on cell viability [1]: inhibited the effect of this anti-PTHrP MoAb

B1: m/hMBC1Laλ: hybrid antibody: L chain mouse FR1, 2/human FR3, 4 (version a); humanized H chain (antibody, V domains shown)
VH: QVQLVESGGGVVQPGRSLRLSCAASGFTFSSYGMSWVRQAPGKGLEWVATISSGGSYTYYPDSVKGRFTISRDNSKNTLYLQMNSLRAEDTAVYYCARQTTMTYFAYWGQGTLVTVSS
VL: QLVLTQSSSASFSLGASAKLTCTLSSQHSTYTIEWYQQQPLKPPKYVMDLKQDGSHSTGDGIPDRFSGSSSGAERYLTISSLQSEDEADYYCGVGDTIKEQFVYVFGGGTKLTVL
- PTHrP binding ability compared with chimeric antibody [2]: equivalent to chimera #23-57-137-1 antibody

B2: m/hMBC1Ldλ: hybrid antibody: L chain mouse FR1, 2/human FR3, 4 (version d, 87 isoleucine); humanized H chain (antibody, V domains shown)
VH: QVQLVESGGGVVQPGRSLRLSCAASGFTFSSYGMSWVRQAPGKGLEWVATISSGGSYTYYPDSVKGRFTISRDNSKNTLYLQMNSLRAEDTAVYYCARQTTMTYFAYWGQGTLVTVSS
VL: QLVLTQSSSASFSLGASAKLTCTLSSQHSTYTIEWYQQQPLKPPKYVMDLKQDGSHSTGDGIPDRFSGSSSGAERYLTISSLQSEDEADYICGVGDTIKEQFVYVFGGGTKLTVL
- PTHrP binding ability compared with chimeric antibody [2]: equivalent to chimera #23-57-137-1 antibody

B3: hmmMBC1L(λ): hybrid antibody: L chain human FR1/mouse FR2, 3, 4; humanized H chain (antibody, V domains shown)
VH: QVQLVESGGGVVQPGRSLRLSCAASGFTFSSYGMSWVRQAPGKGLEWVATISSGGSYTYYPDSVKGRFTISRDNSKNTLYLQMNSLRAEDTAVYYCARQTTMTYFAYWGQGTLVTVSS
VL: QLVLTQSPSASASLGASVKLTCTLSSQHSTYTIEWYQQQPLKPPKYVMDLKQDGSHSTGDGIPDRFSGSSSGADRYLSISNIQPEDEAMYICGVGDTIKEQFVYVFGGGTKVTVL
- PTHrP binding ability compared with chimeric antibody [2]: equivalent to chimera #23-57-137-1 antibody

- binding ability with PTHrP (1-34) [7]: strong binding ability
B4: anti-PTHrP MoAb: mouse monoclonal antibody to human PTHrP (1-34) prepared from hybridoma #23-57-137-1 (FERM BP-5631) (antibody, V domains shown)
VH: EVQLVESGGDLVKPGGSLKLSCAASGFTFSSYGMSWIRQTPDKRLEWVATISSGGSYTYYPDSVKGRFTISRDNAKNTLYLQMSSLKSEDTAMFYCARQTTMTYFAYWGQGTLVTVSA
VL: QLVLTQSSSASFSLGASAKLTCTLSSQHSTYTIEWYQQQPLKPPKYVMDLKQDGSHSTGDGIPDRFSGSSSGADRYLSISNIQPEDEAMYICGVGDTIKEQFVYVFGGGTKVTVLGQP
- 85 kDa fragment of PARP [3, 9]: increased depending on the concentration
- Bax (protein) [3, 9]: increased as the concentration of anti-PTHrP MoAb increased
- Bcl-2 (protein) [3, 9]: decreased as the concentration of anti-PTHrP MoAb increased
- procaspase-3 (35 kDa) ([3]; 100 μg/ml, two days): decreased
- procaspase-3 (35 kDa) ([3]; 200 μg/ml, two days): decreased
- anti-PTHrP MoAb concentration at maximum collagen type X ([3]; total seven days): 50 µg/mL
- collagen type X (protein) ([3]; treated vs untreated cells, total seven days): more collagen type X in the cells treated with Anti-PTHrP MoAb than in untreated cells
- frequency of appearance of cells in apoptosis (stained brown) ([4]; 0, 10, 100, or 200 μg/ml): increased depending on the concentration
- morphological changes characteristic of apoptosis ([4]; after treatment): contraction and round outline were also recognized
- cell morphology (differentiation) [5]: a number of cells which roundly expanded were observed
- amount of expression of Bax (mRNA) [6]: increased
- amount of expression of Bcl-2 (mRNA) [6]: decreased
- fragmentation of DNA in nucleosome specific to apoptosis ([8]; 10 μg/ml): observed
- fragmentation of DNA in nucleosome specific to apoptosis ([8]; 200 μg/ml): observed
